US20030040094A1

Columns and labels:
[1] = biological target: bovine aorta ATPDase type II (78 KDa catalytic unit) (bovine) (UniProt O18956); test: precipitation of ADPase activity with lectin-agarose
[2] = biological target: bovine aorta ATPDase type II (78 KDa catalytic unit) (bovine) (UniProt O18956); test: precipitation with lectin-agarose, elution with Me-alpha-D-mannopyranoside
[3] = biological target: bovine aorta ATPDase type II (78 KDa catalytic unit) (bovine) (UniProt O18956); test: precipitation with lectin-agarose, elution with D-GlcNAc

Sequence of UniProt O18956 (O18956 whole entry, form in doubt): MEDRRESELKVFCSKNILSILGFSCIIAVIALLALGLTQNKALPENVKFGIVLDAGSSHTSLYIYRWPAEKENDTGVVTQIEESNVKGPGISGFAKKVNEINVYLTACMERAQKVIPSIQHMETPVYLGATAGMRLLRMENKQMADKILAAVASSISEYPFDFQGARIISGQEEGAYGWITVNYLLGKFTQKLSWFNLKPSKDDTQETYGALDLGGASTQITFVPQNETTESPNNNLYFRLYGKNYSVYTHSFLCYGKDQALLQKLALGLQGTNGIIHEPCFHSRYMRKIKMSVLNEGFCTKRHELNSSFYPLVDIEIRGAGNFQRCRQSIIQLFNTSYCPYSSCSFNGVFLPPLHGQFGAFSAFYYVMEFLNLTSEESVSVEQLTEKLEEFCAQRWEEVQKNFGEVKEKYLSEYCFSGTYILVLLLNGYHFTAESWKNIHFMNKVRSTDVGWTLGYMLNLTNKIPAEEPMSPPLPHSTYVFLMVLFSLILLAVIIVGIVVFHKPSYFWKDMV

Relative ADPase activity, Bound fraction [1] [%] | Relative ADPase activity, Supernatant (unbound) fraction [1] [%] | Relative ADPase activity, Eluted fraction [2] [%] | Relative ADPase activity, Eluted fraction [3] [%] | Substance
95 | 5 | 62 | – | Con A conjugated to agarose (from UniProt P02866)
95 | 5 | – | 69 | WGA conjugated to agarose (from UniProt P10968 27-197)
